Starred links: 1 amine or outer side, 2 acyl side, 3 side chain; linkers in the order of their positions; H or OH if unused. *: point of attachment. Suc = O=C(CCC(=O)[*:2])[*:1]; Isovaleryl = CC(C)CC(=O)*; Pentanoyl = CCCCC(=O)*

To fix the notation:
B1: peptide 16 (peptide)
peptide: Pentanoyl-ANYAALIEALIRKAQEQQEKNEAALR-NH2
SMILES: CCCCC(=O)N[C@@H](C)C(=O)N[C@@H](CC(N)=O)C(=O)N[C@@H](Cc1ccc(O)cc1)C(=O)N[C@@H](C)C(=O)N[C@@H](C)C(=O)N[C@@H](CC(C)C)C(=O)N[C@H](C(=O)N[C@@H](CCC(=O)O)C(=O)N[C@@H](C)C(=O)N[C@@H](CC(C)C)C(=O)N[C@H](C(=O)N[C@@H](CCCNC(=N)N)C(=O)N[C@@H](CCCCN)C(=O)N[C@@H](C)C(=O)N[C@@H](CCC(N)=O)C(=O)N[C@@H](CCC(=O)O)C(=O)N[C@@H](CCC(N)=O)C(=O)N[C@@H](CCC(N)=O)C(=O)N[C@@H](CCC(=O)O)C(=O)N[C@@H](CCCCN)C(=O)N[C@@H](CC(N)=O)C(=O)N[C@@H](CCC(=O)O)C(=O)N[C@@H](C)C(=O)N[C@@H](C)C(=O)N[C@@H](CC(C)C)C(=O)N[C@@H](CCCNC(=N)N)C(N)=O)[C@@H](C)CC)[C@@H](C)CC
B2: peptide 19 (peptide)
peptide: Suc-ENYLALIEELIRKAQEQQEKNEAALR-NH2
SMILES: CC[C@H](C)[C@H](NC(=O)[C@H](CC(C)C)NC(=O)[C@H](C)NC(=O)[C@H](CC(C)C)NC(=O)[C@H](Cc1ccc(O)cc1)NC(=O)[C@H](CC(N)=O)NC(=O)[C@H](CCC(=O)O)NC(=O)CCC(=O)O)C(=O)N[C@@H](CCC(=O)O)C(=O)N[C@@H](CCC(=O)O)C(=O)N[C@@H](CC(C)C)C(=O)N[C@H](C(=O)N[C@@H](CCCNC(=N)N)C(=O)N[C@@H](CCCCN)C(=O)N[C@@H](C)C(=O)N[C@@H](CCC(N)=O)C(=O)N[C@@H](CCC(=O)O)C(=O)N[C@@H](CCC(N)=O)C(=O)N[C@@H](CCC(N)=O)C(=O)N[C@@H](CCC(=O)O)C(=O)N[C@@H](CCCCN)C(=O)N[C@@H](CC(N)=O)C(=O)N[C@@H](CCC(=O)O)C(=O)N[C@@H](C)C(=O)N[C@@H](C)C(=O)N[C@@H](CC(C)C)C(=O)N[C@@H](CCCNC(=N)N)C(N)=O)[C@@H](C)CC
B3: peptide 17 (peptide)
peptide: Isovaleryl-ANYAALIEALIRAAQEQQEKNEAALR-NH2
SMILES: CC[C@H](C)[C@H](NC(=O)[C@H](CC(C)C)NC(=O)[C@H](C)NC(=O)[C@H](CCC(=O)O)NC(=O)[C@@H](NC(=O)[C@H](CC(C)C)NC(=O)[C@H](C)NC(=O)[C@H](C)NC(=O)[C@H](Cc1ccc(O)cc1)NC(=O)[C@H](CC(N)=O)NC(=O)[C@H](C)NC(=O)CC(C)C)[C@@H](C)CC)C(=O)N[C@@H](CCCNC(=N)N)C(=O)N[C@@H](C)C(=O)N[C@@H](C)C(=O)N[C@@H](CCC(N)=O)C(=O)N[C@@H](CCC(=O)O)C(=O)N[C@@H](CCC(N)=O)C(=O)N[C@@H](CCC(N)=O)C(=O)N[C@@H](CCC(=O)O)C(=O)N[C@@H](CCCCN)C(=O)N[C@@H](CC(N)=O)C(=O)N[C@@H](CCC(=O)O)C(=O)N[C@@H](C)C(=O)N[C@@H](C)C(=O)N[C@@H](CC(C)C)C(=O)N[C@@H](CCCNC(=N)N)C(N)=O
B4: peptide 20 (peptide)
peptide: Suc-ENYLRLIEELIRKAQEQQEKNEAALR-NH2
SMILES: CC[C@H](C)[C@H](NC(=O)[C@H](CC(C)C)NC(=O)[C@H](CCC(=O)O)NC(=O)[C@H](CCC(=O)O)NC(=O)[C@@H](NC(=O)[C@H](CC(C)C)NC(=O)[C@H](CCCNC(=N)N)NC(=O)[C@H](CC(C)C)NC(=O)[C@H](Cc1ccc(O)cc1)NC(=O)[C@H](CC(N)=O)NC(=O)[C@H](CCC(=O)O)NC(=O)CCC(=O)O)[C@@H](C)CC)C(=O)N[C@@H](CCCNC(=N)N)C(=O)N[C@@H](CCCCN)C(=O)N[C@@H](C)C(=O)N[C@@H](CCC(N)=O)C(=O)N[C@@H](CCC(=O)O)C(=O)N[C@@H](CCC(N)=O)C(=O)N[C@@H](CCC(N)=O)C(=O)N[C@@H](CCC(=O)O)C(=O)N[C@@H](CCCCN)C(=O)N[C@@H](CC(N)=O)C(=O)N[C@@H](CCC(=O)O)C(=O)N[C@@H](C)C(=O)N[C@@H](C)C(=O)N[C@@H](CC(C)C)C(=O)N[C@@H](CCCNC(=N)N)C(N)=O

The assay has as its target gp41 of HIV-1 strain HXB2D with mutation V38A (HIV-1 strain HXB2D, UniProt P04578). Put plainly: cell-based or functional assay.
For B1, the “fold change in EC50, HIV-HXB2D V38A mutant” value came to 49 fold.
Then B2, with 22 fold; and B3, with 75 fold.
On to B4, for which the “fold change in EC50, HIV-HXB2D V38A mutant” value is 8 fold.

The values are drawn from US20140357577A1, “HIV Membrane Fusion Inhibitors” (priority 2011, published 2014).
